Measured values from patent publication US20040260068A1 (published 2004).
Values belong to the binder of their own block, whether it stands above or below them.

Key:
[1] = target: T1, recombinant soluble human L-selectin (human, UniProt P14151 39-332); assay: competition ELISA on coated soluble human L-selectin; competitor of biotinylated ChD3
T1 construct: extracellular domain; The residue numbers 1-279 count on the mature protein, not on the precursor
T1 sequence (looked up): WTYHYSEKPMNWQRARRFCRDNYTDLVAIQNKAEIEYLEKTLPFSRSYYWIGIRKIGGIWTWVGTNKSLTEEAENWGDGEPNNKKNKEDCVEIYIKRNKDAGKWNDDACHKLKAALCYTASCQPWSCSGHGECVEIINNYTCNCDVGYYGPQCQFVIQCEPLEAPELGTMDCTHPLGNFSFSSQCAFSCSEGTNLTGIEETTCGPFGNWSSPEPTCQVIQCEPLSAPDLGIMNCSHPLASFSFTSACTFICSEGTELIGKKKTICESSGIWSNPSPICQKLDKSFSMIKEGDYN
Experimental: ELISA plates were coated with 0.25 μg/ml soluble human L-selectin in 0.2 M sodium carbonate buffer (pH 9.4) and blocked with SuperBlock blocking buffer (Pierce). […] As controls, humanized anti-human L-selectin monoclonal antibody HuDREG55 (Co et al., Immunotechol. 4:253-266 (1999)) and humanized anti-human HLA-DR monoclonal antibody Hu1D10 (Kostelny et al., Int. J. Cancer 93:556-565 (2001)) were used. ELISA plates were incubated at room temperature for 2 hr. After washing the wells with Washing Buffer (PBS containing 0.1% Tween 20), 100 μl of 1 μg/ml HRP-conjugated streptavidin (Pierce) in ELISA buffer was added to each well. ELISA plates were incubated at room temperature for 60 min and washed with Washing Buffer. For color development, 100 μl/well of ABTS substrate was added. Color development was stopped by adding 100 μl/well of 2% oxalic acid. Absorbance was read at 415 nm.

[2] = target: T2, human P-selectin on CHO-K1 transfectant cells (human, UniProt P16109 42-830); assay: flow cytometry on CHO-K1 transfectants; panel H read as CHO-P selectin
T2 construct: whole, on cells; also called CHO-P selectin
T2 sequence (looked up): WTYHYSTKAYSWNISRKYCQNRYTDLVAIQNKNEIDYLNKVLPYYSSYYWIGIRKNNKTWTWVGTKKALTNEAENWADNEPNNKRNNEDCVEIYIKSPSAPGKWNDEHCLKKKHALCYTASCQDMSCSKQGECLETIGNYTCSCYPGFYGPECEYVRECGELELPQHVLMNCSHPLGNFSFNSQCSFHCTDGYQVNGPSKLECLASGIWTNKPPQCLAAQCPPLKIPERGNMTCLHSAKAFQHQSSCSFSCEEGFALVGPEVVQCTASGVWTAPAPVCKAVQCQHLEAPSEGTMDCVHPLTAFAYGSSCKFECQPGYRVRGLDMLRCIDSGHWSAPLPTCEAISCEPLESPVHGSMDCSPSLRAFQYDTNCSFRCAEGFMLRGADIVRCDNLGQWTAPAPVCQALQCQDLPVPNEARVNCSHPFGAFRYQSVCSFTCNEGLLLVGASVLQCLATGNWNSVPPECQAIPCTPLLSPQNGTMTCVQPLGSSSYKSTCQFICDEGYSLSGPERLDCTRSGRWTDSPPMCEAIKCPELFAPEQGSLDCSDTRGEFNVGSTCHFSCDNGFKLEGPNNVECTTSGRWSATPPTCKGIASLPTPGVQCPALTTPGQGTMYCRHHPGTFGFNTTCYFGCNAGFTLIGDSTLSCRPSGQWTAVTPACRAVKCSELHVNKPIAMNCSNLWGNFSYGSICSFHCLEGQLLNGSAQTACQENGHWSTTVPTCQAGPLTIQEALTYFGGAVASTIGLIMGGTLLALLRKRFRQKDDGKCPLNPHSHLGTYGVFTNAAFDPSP
Experimental: (§1) 2×10⁵ cells were incubated on ice for 30 minutes in FACS buffer (PBS containing 1% bovine serum albumin and 0.2% sodium azide) with 1 μg of test antibody or buffer alone. After incubation, cells were washed three times with FACS buffer and subsequently incubated for another 30 minutes with PE-conjugated donkey anti-human IgG F(ab′)2 fragment (Jackson ImmunoResearch). After washing three times with FACS buffer, relative cell fluorescence was analyzed by flow cytometry using a Cyan (DAKOCytomation).

[3] = target: T3, human E-selectin on CHO-K1 transfectant cells (human, UniProt P16581 22-610); assay: flow cytometry on CHO-K1 transfectants
T3 construct: whole, on cells; also called CHO-E Selectin; CHO-E selectin
T3 sequence (looked up): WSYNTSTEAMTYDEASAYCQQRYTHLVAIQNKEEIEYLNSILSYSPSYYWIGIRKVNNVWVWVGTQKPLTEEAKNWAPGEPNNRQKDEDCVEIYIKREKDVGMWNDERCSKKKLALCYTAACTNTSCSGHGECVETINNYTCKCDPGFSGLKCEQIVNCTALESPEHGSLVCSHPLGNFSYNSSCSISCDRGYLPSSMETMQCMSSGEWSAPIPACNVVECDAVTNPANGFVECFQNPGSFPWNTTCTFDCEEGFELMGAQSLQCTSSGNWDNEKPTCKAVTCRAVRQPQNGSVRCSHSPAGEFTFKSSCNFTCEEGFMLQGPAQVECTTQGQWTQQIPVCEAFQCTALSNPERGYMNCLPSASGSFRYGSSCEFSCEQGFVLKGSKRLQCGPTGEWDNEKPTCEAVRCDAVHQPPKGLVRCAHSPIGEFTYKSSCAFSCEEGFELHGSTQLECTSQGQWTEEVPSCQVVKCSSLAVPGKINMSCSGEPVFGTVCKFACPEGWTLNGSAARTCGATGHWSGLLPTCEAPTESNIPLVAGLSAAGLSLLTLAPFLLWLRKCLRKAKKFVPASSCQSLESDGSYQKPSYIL
Experimental: as §1

[4] = target: T2, human P-selectin on CHO-K1 transfectant …; assay: flow cytometry on CHO-K1 transfectants
Experimental: as §1

- IC50 [1]: 3.4 µg/mL
B1: chicken-human chimeric anti-L-selectin antibody D3 (antibody, V domains shown)
VH: AVTLDESGGGLQTPGGALSLVCRASGFSIGSYNMHWVRQAPGKGLEWVAGISGAGSRTAWYGAAVKGRATISRDNGQSTVRLQLNNLRAEDTGTYYCAKDYGGSGSPWYGWGAASWIDAWGHGTEVIVSS
VL: ALTQPASVSANPGETVKITCSGGSYYGWYQQKSPGSAPVTVIYDNDKRPSDIPSRFSGSKSGSTGTLTITGVQAEDEAVYFCGSADSAYVGIFGAGTTLTVL
notes: Transiently expressed in 293-H cells; also called ChD3; chimeric D3
- binding result [2]: no binding (tested: 1 µg of test antibody)
- binding result [3]: no binding (tested: 1 µg of test antibody)

- IC50 [1]: 2.9 µg/mL
B2: humanized anti-L-selectin antibody D3 (antibody, V domains shown)
VH: EVQLLESGGGLVQPGGSLRLSCAASGFSIGSYNMHWVRQAPGKGLEWVAGISGAGSRTAWYGAAVKGRATISRDNAKNTVYLQMNSLRAEDTAVYYCAKDYGGSGSPWYGWGAASWIDAWGQGTLVTVSS
VL: SSELTQDPAVSVALGQTVRITCSGGSYYGWYQQKPGQAPVTVIYDNDKRPSDIPSRFSGSKSGSTGSLTITGAQAEDEADYYCGSADSAYVGIFGGGTKLTVL
notes: Transiently expressed in 293-H cells; also called HuD3; humanized D3
- binding result [4]: no binding (tested: 1 µg of test antibody)
- binding result [3]: no binding (tested: 1 µg of test antibody)
